From US20250042977A1 (WUHAN BANKE BIOTECHNOLOGY, published 2025)

Tests used:
[1] = molecular target: F protein of respiratory syncytial virus type A (RSV A) (human respiratory syncytial virus type A); assay: cell-based or functional assay
[2] = molecular target: F protein of respiratory syncytial virus type B (RSV B) (human respiratory syncytial virus type B); assay: cell-based or functional assay
[3] = molecular target: T1, recombinant human respiratory syncytial virus envelope protein F fused to the Fc fragment of antibody IgG1 … (human respiratory syncytial virus, UniProt P03420 26-524; P01857 99-330 = IgG part); assay: ELISA, recF (4 ug/mL) coated, detection with HRP-Anti-FLAG
T1 construct: also called recombinant F protein; RSV F protein
T1 sequence (P03420 26-524, tags or fused parts left off): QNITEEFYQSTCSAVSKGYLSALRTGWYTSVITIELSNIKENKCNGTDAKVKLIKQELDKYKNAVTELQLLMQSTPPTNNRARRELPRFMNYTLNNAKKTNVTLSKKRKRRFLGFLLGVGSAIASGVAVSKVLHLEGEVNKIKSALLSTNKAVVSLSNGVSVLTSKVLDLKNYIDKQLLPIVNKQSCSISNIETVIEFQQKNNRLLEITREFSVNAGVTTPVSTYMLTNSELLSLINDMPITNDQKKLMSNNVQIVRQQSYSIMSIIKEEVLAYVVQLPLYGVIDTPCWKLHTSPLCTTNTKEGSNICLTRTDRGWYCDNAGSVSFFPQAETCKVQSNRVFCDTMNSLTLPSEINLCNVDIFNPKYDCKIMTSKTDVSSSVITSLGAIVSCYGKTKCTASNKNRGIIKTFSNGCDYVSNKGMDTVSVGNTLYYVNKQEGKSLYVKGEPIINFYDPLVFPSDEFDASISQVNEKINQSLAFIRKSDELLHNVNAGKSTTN

bovine serum albumin = molecular target: T2, bovine serum albumin (bovine, UniProt P02769 25-607); assay: ELISA, BSA as negative control, detection with HRP-Anti-FLAG
T2 construct: Negative control; also called BSA
T2 sequence (P02769 25-607 limits assumed): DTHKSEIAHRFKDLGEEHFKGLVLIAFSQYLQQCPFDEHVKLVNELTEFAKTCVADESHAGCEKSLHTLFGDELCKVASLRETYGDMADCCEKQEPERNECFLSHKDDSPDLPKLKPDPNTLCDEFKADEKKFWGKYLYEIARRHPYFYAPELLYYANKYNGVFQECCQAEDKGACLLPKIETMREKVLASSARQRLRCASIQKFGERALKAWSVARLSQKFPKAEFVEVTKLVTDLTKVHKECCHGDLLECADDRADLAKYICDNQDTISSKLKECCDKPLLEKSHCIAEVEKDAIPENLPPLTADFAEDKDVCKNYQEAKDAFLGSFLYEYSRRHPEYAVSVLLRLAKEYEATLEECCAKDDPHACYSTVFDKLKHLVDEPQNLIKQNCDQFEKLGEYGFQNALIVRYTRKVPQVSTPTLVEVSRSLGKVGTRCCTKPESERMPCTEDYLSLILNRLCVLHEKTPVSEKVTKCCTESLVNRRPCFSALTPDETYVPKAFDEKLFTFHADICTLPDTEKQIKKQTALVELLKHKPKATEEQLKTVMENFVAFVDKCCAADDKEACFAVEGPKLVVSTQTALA
Description: recF (4 μg/mL) was coated on an ELISA plate and incubated overnight at 4° C. and then blocked with PBS+3% milk at 37° C. for 1 h. […] The plate was then washed four times with PBST (PBS+0.05% Tween 20) and then incubated with HRP-Anti-FLAG monoclonal antibody at 37° C. for 1 h. The ABTS was added for color development. Bovine serum albumin (BSA) was used as a negative control.

B1: C-based single domain antibody BBT-VC001-1 (designed binder)
chain: PSVLCLPPKPKDTLVISRTPEVTCVVSGYNPYDFPIIKFKWYVDGVEVDNAKVKPRDENSYNTDSVVSKLTVLHQDWLNGKEYKCKVSAREGGSSGEWYYDLWGPIECTISKAK
notes: expressed in E. coli HB2151; also called C-type nanobody BBT-VC001-1; BBC-VC001-1; not shown: C-terminal 6x His tag and FLAG tag
IC50 for inhibition of respiratory syncytial virus type A (infection of Hep-2 cells) [1]: 8.33 ng/mL
IC50 for inhibition of respiratory syncytial virus type B (infection of Hep-2 cells) [2]: 8.42 ng/mL
EC50 [3]: 28 nM
binding result (bovine serum albumin): no binding
